The source of these data is article PMC5143326.

One assay addresses LRP1 (Homo sapiens) (UniProt Q07954). The note with it: cited from earlier work.
The target of assay [1] is low density lipoprotein receptor-related protein 1 (LRP1), purified from placenta. The assay is described as follows: SPR; Biacore T100; LRP1 immobilised on CM5 chip at 3.4 fmol/mm2; CCN-2 or its fragments flowed over; 10 mM Hepes pH 7.4, 150 mM NaCl, 5 mM CaCl2, 0.005 % surfactant P20; 25 °C; affinity constants by steady-state analysis. (In general: Surface plasmon resonance follows binding to a sensor surface in real time, without labels.)

Sequence of UniProt Q07954 (Q07954 20-4544): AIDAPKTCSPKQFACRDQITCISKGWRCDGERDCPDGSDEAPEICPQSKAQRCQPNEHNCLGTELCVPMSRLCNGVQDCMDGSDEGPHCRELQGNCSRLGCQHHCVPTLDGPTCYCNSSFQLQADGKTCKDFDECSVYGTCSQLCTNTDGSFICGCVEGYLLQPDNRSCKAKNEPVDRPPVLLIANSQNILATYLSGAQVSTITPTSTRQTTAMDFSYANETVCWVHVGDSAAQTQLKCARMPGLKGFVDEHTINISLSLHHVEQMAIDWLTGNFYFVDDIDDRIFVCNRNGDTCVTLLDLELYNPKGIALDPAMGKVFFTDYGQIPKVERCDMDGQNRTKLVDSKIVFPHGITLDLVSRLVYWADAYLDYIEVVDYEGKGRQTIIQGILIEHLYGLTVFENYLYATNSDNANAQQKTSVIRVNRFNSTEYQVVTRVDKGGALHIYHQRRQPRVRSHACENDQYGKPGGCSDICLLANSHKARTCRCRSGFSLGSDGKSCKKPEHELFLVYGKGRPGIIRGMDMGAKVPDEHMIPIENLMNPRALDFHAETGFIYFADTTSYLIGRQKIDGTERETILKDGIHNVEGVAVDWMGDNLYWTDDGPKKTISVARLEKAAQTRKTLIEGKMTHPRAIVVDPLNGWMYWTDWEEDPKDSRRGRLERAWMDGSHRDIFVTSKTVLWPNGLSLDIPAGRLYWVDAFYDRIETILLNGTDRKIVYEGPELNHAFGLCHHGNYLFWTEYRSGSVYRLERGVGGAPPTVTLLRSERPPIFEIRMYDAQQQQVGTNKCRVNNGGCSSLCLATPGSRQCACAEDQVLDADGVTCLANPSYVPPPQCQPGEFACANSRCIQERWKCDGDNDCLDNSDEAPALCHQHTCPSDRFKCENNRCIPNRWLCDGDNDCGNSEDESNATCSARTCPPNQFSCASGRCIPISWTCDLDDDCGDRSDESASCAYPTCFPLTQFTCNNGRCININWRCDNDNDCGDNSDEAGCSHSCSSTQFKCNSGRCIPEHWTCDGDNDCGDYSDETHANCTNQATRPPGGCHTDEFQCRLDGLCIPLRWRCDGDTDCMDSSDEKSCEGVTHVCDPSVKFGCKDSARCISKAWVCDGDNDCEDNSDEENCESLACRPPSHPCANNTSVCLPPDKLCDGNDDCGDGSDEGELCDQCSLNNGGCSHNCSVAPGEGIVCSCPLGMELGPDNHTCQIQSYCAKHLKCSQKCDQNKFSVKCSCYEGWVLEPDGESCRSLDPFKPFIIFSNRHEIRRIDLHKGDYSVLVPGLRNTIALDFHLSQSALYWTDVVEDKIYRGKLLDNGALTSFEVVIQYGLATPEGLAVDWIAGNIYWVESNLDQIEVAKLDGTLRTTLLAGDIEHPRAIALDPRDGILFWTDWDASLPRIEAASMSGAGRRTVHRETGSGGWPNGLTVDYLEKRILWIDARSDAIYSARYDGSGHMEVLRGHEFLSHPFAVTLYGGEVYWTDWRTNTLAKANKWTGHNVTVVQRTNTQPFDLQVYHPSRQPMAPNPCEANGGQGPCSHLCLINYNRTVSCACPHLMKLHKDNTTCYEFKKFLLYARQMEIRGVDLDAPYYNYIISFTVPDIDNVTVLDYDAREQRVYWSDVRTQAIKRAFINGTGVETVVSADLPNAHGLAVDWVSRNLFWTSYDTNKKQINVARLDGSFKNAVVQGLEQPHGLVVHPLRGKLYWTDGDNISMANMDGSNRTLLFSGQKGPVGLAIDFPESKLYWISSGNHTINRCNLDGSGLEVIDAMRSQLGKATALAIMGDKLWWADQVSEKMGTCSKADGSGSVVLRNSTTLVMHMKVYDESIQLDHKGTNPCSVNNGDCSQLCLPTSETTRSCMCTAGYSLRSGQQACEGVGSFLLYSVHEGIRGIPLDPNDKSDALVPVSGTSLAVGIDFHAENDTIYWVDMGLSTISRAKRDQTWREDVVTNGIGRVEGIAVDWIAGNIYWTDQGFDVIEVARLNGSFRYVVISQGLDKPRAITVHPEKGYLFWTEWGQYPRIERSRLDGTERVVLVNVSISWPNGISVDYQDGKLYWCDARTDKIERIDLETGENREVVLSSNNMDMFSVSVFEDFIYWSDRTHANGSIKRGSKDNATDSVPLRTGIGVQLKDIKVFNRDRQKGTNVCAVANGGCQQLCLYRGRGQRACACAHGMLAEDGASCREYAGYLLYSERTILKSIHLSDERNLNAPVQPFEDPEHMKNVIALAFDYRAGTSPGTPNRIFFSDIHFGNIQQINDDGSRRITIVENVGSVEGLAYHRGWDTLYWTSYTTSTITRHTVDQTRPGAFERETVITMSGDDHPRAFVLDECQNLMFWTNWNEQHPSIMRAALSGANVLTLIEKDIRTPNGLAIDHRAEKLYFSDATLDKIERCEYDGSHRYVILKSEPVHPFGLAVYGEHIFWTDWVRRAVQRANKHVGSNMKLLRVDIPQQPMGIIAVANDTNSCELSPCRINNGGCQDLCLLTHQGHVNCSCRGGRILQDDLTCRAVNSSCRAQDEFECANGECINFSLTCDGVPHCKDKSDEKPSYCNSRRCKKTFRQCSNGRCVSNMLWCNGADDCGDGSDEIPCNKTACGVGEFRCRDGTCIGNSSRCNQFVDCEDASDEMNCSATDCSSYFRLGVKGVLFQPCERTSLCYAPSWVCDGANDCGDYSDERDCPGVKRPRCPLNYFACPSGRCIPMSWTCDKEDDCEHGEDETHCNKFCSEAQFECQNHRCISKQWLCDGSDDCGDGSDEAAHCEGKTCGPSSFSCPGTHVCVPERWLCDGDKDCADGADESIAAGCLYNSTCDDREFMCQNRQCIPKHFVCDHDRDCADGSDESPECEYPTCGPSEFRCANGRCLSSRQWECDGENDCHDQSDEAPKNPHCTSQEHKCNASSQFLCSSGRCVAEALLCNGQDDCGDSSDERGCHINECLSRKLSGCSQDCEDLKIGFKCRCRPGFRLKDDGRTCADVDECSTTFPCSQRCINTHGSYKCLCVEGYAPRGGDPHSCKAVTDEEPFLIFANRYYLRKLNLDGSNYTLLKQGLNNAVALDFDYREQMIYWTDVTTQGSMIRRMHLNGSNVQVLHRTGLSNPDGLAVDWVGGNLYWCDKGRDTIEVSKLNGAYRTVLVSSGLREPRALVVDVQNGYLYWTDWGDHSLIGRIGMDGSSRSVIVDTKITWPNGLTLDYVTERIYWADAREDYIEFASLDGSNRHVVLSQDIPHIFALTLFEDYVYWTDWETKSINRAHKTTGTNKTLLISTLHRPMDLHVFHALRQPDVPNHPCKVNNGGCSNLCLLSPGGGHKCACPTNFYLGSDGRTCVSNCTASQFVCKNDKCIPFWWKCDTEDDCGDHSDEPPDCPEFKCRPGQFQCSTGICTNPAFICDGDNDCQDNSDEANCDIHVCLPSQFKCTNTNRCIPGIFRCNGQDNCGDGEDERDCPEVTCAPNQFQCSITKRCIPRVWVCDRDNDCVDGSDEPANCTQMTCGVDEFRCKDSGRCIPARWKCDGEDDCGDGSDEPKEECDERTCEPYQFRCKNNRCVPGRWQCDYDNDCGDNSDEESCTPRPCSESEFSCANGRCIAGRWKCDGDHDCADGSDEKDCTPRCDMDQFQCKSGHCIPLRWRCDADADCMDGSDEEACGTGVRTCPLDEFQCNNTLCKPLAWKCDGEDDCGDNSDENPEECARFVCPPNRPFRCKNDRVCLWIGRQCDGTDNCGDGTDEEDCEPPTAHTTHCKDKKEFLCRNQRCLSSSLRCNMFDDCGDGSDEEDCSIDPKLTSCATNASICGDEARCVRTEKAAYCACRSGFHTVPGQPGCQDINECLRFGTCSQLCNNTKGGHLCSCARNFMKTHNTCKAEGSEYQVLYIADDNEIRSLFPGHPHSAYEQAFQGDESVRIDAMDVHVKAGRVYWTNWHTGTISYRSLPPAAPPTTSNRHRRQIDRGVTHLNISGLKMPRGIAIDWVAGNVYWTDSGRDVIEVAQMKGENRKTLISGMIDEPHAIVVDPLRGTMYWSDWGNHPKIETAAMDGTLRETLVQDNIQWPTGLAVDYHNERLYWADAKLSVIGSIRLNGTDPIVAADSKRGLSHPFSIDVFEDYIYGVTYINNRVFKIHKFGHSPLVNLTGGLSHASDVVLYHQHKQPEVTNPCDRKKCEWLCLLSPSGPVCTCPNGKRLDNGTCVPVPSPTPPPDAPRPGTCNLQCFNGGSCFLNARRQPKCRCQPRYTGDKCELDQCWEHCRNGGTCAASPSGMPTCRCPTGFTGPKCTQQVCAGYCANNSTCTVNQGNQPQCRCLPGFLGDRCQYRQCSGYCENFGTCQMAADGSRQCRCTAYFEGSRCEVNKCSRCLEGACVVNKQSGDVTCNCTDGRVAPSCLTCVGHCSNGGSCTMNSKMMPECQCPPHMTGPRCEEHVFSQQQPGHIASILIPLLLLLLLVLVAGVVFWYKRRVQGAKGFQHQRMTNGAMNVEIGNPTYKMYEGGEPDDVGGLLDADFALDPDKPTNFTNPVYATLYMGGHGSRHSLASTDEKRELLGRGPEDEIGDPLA

Broadly, the Kd is a measure of binding affinity in units of concentration. On to RAP (from UniProt P30533), for which the dissociation constant (Kd) with LRP1 (Homo sapiens) is 5.4 nM.
“recombinant human CCN-2 C-terminal fragment (domain 3 and 4) (domain or fragment)” displayed a Kd in assay [1] of 112 nM.
Consider “recombinant human full length CCN-2 (connective tissue growth factor) (from UniProt P29279 27-349) (natural protein)”, for which, in assay [1], the Kd worked out at 116 nM.
